Positions count from the first letter of the chain named.
Experiments:
[1] = biological target: T1, human GPRC5D (human, UniProt Q9NZD1 1-345); experiment: cell-based or functional assay
[2] = biological target: T1, human GPRC5D; experiment: cell-based or functional assay; remark: listed apart in the source
[3] = biological target: T1, human GPRC5D; experiment: cell-based or functional assay; remark: listed apart in the source
[4] = biological target: T1, human GPRC5D; experiment: cell-based or functional assay; remark: listed apart in the source
[5] = biological target: T1, human GPRC5D; experiment: flow cytometry on OPM-2 cells, assay replicate 1
Procedure: (§1) Cells were re-suspended in PBS at 0.5 Mio cells per ml. Next, 0.05 Mio cells were plated per well of a round-bottom 96-well-plate, centrifuged and supernatants were discarded. Cells were stained with zombie aqua viability stain (BioLegend #423102, pre-diluted 1:400), containing Fc blocking (BioLegend #422302, prediluted 1:400) for 20 minutes in a total volume of 50 ul per well. […] Assay plates were centrifuged and supernatants were discarded.
(§2) Thereafter, cells were resuspended by smooth vortexing and incubated for another 30 min at 4° C. in a total of 25 μl per well, containing 500 nM of the secondary antibody (aPGLALA mulG2b Alexa 647, produced inhouse) in FACS buffer. Cells were washed once and analyzed on a BD flow cytometer, equipped with FACS Diva. Binding curves and EC50 values were obtained using GraphPadPrism6. The EC50 values of assay replicate 1 correspond to the graphs shown in FIG. 25A, FIG. 25B and FIG. 25C. The EC50 values of assay replicate 2 correspond to the graphs shown in FIG. 25D, FIG. 25E and FIG. 25F. The EC50 values of assay replicate 3 correspond to the graphs shown in FIG. 25G, FIG. 25H and FIG. 25I.

[6] = biological target: T1, human GPRC5D; experiment: flow cytometry on OPM-2 cells, assay replicate 2
Procedure: as §1, §2

[7] = biological target: T1, human GPRC5D; experiment: flow cytometry on OPM-2 cells, assay replicate 3
Procedure: as §1, §2

[8] = biological target: T1, human GPRC5D; experiment: flow cytometry on NCI-H929 cells, assay replicate 1
Procedure: as §1, §2

[9] = biological target: T1, human GPRC5D; experiment: flow cytometry on NCI-H929 cells, assay replicate 2
Procedure: as §1, §2

[10] = biological target: T1, human GPRC5D; experiment: flow cytometry on NCI-H929 cells, assay replicate 3
Procedure: as §1, §2

[11] = biological target: T1, human GPRC5D; experiment: flow cytometry on RPMI-8226 cells, assay replicate 1
Procedure: as §1, §2

[12] = biological target: T1, human GPRC5D; experiment: flow cytometry on RPMI-8226 cells, assay replicate 2
Procedure: as §1, §2

[13] = biological target: T1, human GPRC5D; experiment: flow cytometry on RPMI-8226 cells, assay replicate 3
Procedure: as §1, §2

[14] = biological target: T1, human GPRC5D; experiment: flow cytometry on NCI-H929 cells; paragraph 550 says these values were falsely calculated by a factor of 10 (too low)
Procedure: (§3) To measure the binding to GPRC5D, we performed a flow cytometry-based binding assay on reported multiple myeloma cell lines (Lombardi et al., Molecular characterization of human multiple myeloma cell lines by integrative genomics: insights into the biology of the disease; Genes Chromosomes Cancer. 2007 March; 46(3):226-38). The cell line NCI-H929 (ATCC® CRL-9068) was cultured in RPMI 1640 with Glutamax medium (Gibco) supplemented with 10% FBS, 1× Penicillin/Streptomycin (Gibco), 1× Sodium Pyruvate (Gibco) and 50 μM beta-Mercaptoethanol (Gibco). Jurkat-NFAT reporter cells (a CD3-expressing human acute lymphatic leukemia reporter cell line with a NFAT promoter, GloResponse Jurkat NFAT-RE-luc2P, Promega #CS176501) were cultured in RPMI 1640, containing 2 g/l Glucose, 2 g/l NaHCO₃, 10% FCS, 25 mM HEPES, 2 mM L-Glutamine, 1×NEAA, 1× Sodium-pyruvate and 200 μg/ml Hygromycin B.
(§4) Flow cytometry acquisition was performed on a custom-designed BD Biosciences Fortessa and analyzed using BD Diva. EC50 values were calculated, using GraphPad Prism software.

[15] = biological target: T2, human CD3 (human, UniProt P07766 23-207); experiment: flow cytometry on Jurkat-NFAT cells; paragraph 550 says these values were falsely calculated by a factor of 10 (too low)
T2 construct: Expressed on Jurkat-NFAT reporter cells as part of the TCR/CD3 complex; also called hCD3; CD3 epsilon
Procedure: as §3, §4

[16] = biological target: T3, BCMA (UniProt Q02223 1-184, limits assumed); experiment: cell-based or functional assay
T3 sequence (looked up): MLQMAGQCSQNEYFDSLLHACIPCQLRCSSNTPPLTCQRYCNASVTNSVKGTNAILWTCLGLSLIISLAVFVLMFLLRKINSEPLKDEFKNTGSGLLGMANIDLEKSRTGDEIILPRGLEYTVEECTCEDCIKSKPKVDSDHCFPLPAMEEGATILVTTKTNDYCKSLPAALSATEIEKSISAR

[17] = biological target: T3, BCMA; experiment: cell-based or functional assay; remark: listed apart in the source
[18] = biological target: T3, BCMA; experiment: cell-based or functional assay; remark: listed apart in the source
[19] = biological target: T3, BCMA; experiment: cell-based or functional assay; remark: listed apart in the source

T1 sequence (Q9NZD1 whole entry): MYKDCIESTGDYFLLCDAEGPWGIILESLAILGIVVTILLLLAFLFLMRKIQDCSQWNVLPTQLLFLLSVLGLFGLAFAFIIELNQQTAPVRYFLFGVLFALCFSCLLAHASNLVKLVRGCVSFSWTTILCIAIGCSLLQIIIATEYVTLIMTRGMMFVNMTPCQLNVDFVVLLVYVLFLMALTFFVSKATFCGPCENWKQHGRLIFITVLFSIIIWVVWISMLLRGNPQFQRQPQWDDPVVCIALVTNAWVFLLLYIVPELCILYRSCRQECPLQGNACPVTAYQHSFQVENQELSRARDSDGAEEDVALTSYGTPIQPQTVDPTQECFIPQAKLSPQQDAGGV
T2 sequence (P07766 23-207 limits assumed): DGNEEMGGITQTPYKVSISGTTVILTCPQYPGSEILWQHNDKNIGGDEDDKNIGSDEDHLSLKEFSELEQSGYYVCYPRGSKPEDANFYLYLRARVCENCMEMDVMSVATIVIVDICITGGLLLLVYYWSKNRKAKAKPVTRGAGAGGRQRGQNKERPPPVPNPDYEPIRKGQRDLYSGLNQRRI

B1: 5E11(VH1c + VL2b)-C122-TCB (P1AE6625) (bispecific antibody, human IgG1, kappa, L234A L235A)
light 1: EIVLTQSPGTLSLSPGERATLSCRASQSVSISGINLMNWYQQKPGQQPKLLIYHASILASGIPDRFSGSGSGTDFTLTISRLEPEDFAVYYCQQTRESPLTFGQGTRLEIKRTVAAPSVFIFPPSDRKLKSGTASVVCLLNNFYPREAKVQWKVDNALQSGNSQESVTEQDSKDSTYSLSSTLTLSKADYEKHKVYACEVTHQGLSSPVTKSFNRGEC
light 2: EVQLLESGGGLVQPGGSLRLSCAASGFQFSSYAMNWVRQAPGKGLEWVSRIRSKYNNYATYYADSVKGRFTISRDDSKNTLYLQMNSLRAEDTAVYYCVRHTTFPSSYVSYYGYWGQGTLVTVSSASVAAPSVFIFPPSDEQLKSGTASVVCLLNNFYPREAKVQWKVDNALQSGNSQESVTEQDSKDSTYSLSSTLTLSKADYEKHKVYACEVTHQGLSSPVTKSFNRGEC
heavy 1: EVQLLESGGGLVQPGGSLRLSCAASGFTFSKYAMAWVRQAPGKGLEWVASISTGGVNTYYADSVKGRFTISRDNSKNTLYLQMNSLRAEDTAVYYCATHTGDYFDYWGQGTMVTVSSASTKGPSVFPLAPSSKSTSGGTAALGCLVEDYFPEPVTVSWNSGALTSGVHTFPAVLQSSGLYSLSSVVTVPSSSLGTQTYICNVNHKPSNTKVDEKVEPKSCDKTHTCPPCPAPEAAGGPSVFLFPPKPKDTLMISRTPEVTCVVVDVSHEDPEVKFNWYVDGVEVHNAKTKPREEQYNSTYRVVSVLTVLHQDWLNGKEYKCKVSNKALGAPIEKTISKAKGQPREPQVCTLPPSRDELTKNQVSLSCAVKGFYPSDIAVEWESNGQPENNYKTTPPVLDSDGSFFLVSKLTVDKSRWQQGNVFSCSVMHEALHNHYTQKSLSLSPGK
heavy 2: not shown
notes: 2+1 TCB: LC1 (anti-GPRC5D), LC2 (anti-CD3 crossed), HC1 Fc hole, HC2 Fc knob
B1 was tested, and the “AUC, activation of Jurkat-NFAT reporter cells in presence of RPMI-8226 cells” value [1] was 572000, the “EC50 (pM), activation of Jurkat-NFAT reporter cells in presence of RPMI-8226 cells” value [1] was 40 pM and the “EC50 (pM), TCB-mediated tumor cell lysis, AMO-1” value [2] was 8.3 pM. The “EC50 (pM), TCB-mediated tumor cell lysis, IM-9” value [2] was 267 pM, the “EC50 (pM), TCB-mediated tumor cell lysis, LP-1” value [2] was 7.99 pM and the “EC50 (pM), TCB-mediated tumor cell lysis, NCI-H929” value [2] was 0.597 pM. For the same binder, the “AUC, TCB-mediated tumor cell lysis, AMO-1” value [3] was 8.01e+07, the “AUC, TCB-mediated tumor cell lysis, IM-9” value [3] was 9.27e+06 and the “AUC, TCB-mediated tumor cell lysis, LP-1” value [3] was 1.54e+07. The “AUC, TCB-mediated tumor cell lysis, NCI-H929” value [3] was 1.79e+07, the “EC50 (pM), activation of autologous T-cells (CD69 on CD8 T cells) with a primary MM sample” value [4] was 14.8 pM and the EC50 [5] was 34.5 nM. It also gave an EC50 [6] of 75.5 nM, an EC50 [7] of 54.2 nM and an EC50 [8] of 75.8 nM. The EC50 [9] was about 123 nM, the EC50 [10] was about 158 nM and the EC50 [11] was 26.8 nM. The EC50 [12] was 20.4 nM, the EC50 [13] was 55 nM and the EC50 [14] was 1.15 nM. It also gave an EC50 [15] of 11.5 nM.

B2: BCMA-TCB (bispecific antibody, human IgG1, kappa, L234A L235A)
light 1: EIVLTQSPGTLSLSPGERATLSCRASQSVSAYYLAWYQQKPGQAPRLLMYDASIRATGIPDRFSGSGSGTDFTLTISRLEPEDFAVYYCQQYERWPLTFGQGTKVEIKRTVAAPSVFIFPPSDRKLKSGTASVVCLLNNFYPREAKVQWKVDNALQSGNSQESVTEQDSKDSTYSLSSTLTLSKADYEKHKVYACEVTHQGLSSPVTKSFNRGEC
light 2: B1 light 2 with Q28T, S31T, T102G, T103N, P105G, S106N, Y111W, Y112F, G113A
heavy 1: EVQLLESGGGLVQPGGSLRLSCAASGFTFSSYAMNWVRQAPGKGLEWVSAITASGGSTYYADSVKGRFTISRDNSKNTLYLQMNSLRAEDTAVYYCARYWPMSLWGQGTLVTVSSASTKGPSVFPLAPSSKSTSGGTAALGCLVEDYFPEPVTVSWNSGALTSGVHTFPAVLQSSGLYSLSSVVTVPSSSLGTQTYICNVNHKPSNTKVDEKVEPKSCDKTHTCPPCPAPEAAGGPSVFLFPPKPKDTLMISRTPEVTCVVVDVSHEDPEVKFNWYVDGVEVHNAKTKPREEQYNSTYRVVSVLTVLHQDWLNGKEYKCKVSNKALGAPIEKTISKAKGQPREPQVCTLPPSRDELTKNQVSLSCAVKGFYPSDIAVEWESNGQPENNYKTTPPVLDSDGSFFLVSKLTVDKSRWQQGNVFSCSVMHEALHNHYTQKSLSLSPGK
heavy 2: not shown
For B2, the “EC50 in vitro killing assay, AMO-1” value [16] was 0.518 nM, the “EC50 in vitro killing assay, EJM” value [16] was 0.132 nM and the “EC50 in vitro killing assay, L363” value [16] was 0.127 nM. The “EC50 in vitro killing assay, MOLP-2” value [16] was 0.032 nM, the “EC50 in vitro killing assay, NCI-H929” value [16] was 0.311 nM and the “EC50 in vitro killing assay, OPM-2” value [16] was 0.033 nM. The “EC50 in vitro killing assay, RPMI” value [16] was 0.011 nM, the “EC50 (pM), TCB-mediated tumor cell lysis, AMO-1” value [17] was 137 pM and the “EC50 (pM), TCB-mediated tumor cell lysis, IM-9” value [17] was 55.7 pM. The “EC50 (pM), TCB-mediated tumor cell lysis, LP-1” value [17] was 76.4 pM, the “EC50 (pM), TCB-mediated tumor cell lysis, NCI-H929” value [17] was 171 pM and the “AUC, TCB-mediated tumor cell lysis, AMO-1” value [18] was 4.73e+07. The “AUC, TCB-mediated tumor cell lysis, IM-9” value [18] was 1.1e+07, the “AUC, TCB-mediated tumor cell lysis, LP-1” value [18] was 1.11e+07 and the “AUC, TCB-mediated tumor cell lysis, NCI-H929” value [18] was 1.07e+07. For the same binder, the “EC50 (pM), activation of autologous T-cells (CD69 on CD8 T cells) with a primary MM sample” value [19] was 52.5 pM.

From patent US20220259318A1 (Hoffmann-La Roche, published 2022)
